Assay results published in doi:10.1101/2023.01.19.524784 (bioRxiv, 2023).
Numbering of substitutions follows the chain as printed. Numbers in names are those of the source.

B1: 21B6 (antibody, V domains shown)
VH: EVRLVESGGGLVQPGGSLRLSCAASGFTFSDYYISWVRQAPGRGPEWVGFIRNVLYRGTTEYAPSVKGRFIISRDDSRAIASLQMNGLKADDTAVYYCALGASGTDRDWFDVWGPGVLVTVSS
VL: DIQMTQSPSSLSASVGDTVTITCRASQDISNSLAWYQQKPGKAPKALIYYASNLESGVPSRFSGSGSGTDFTLTISSLQPEDFATYYCQQHNNYPFTFGPGTKVDIK
B2: 20A7 (antibody, V domains shown)
VH: DVQLVESGGGLVKPGGSLRLSCVASGFTFSNSEMHWVRQAPGKGLEWVSVISESGETTHYADSVKGRFTISRDNANNLLLLQMNSLRADDTAVYYCTRYNWNNRVYALDSWGQGVVVTVSS
VL: EIVLTQSPATLSLSPGEGASLSCRASQTVIGSLAWYQQKPGQAPRLLIYGASSRATGIPDRFSGSGSGTDFTLTISSLEPEDFAVYYCQQYGNWPLTFGPGTRLDIR
B3: 20A7-VH E33V (antibody, V domains shown)
VH: B2 VH with E33V
VL: B2 VL
B4: 25F9 (antibody, V domains shown)
VH: EVQLVESGGGLVQPGGSLRLSCSASGFRFSDYWINWVRQAPGKGLEWVGFIKTKADFGTPAYAESVKGRFSISRDDSKNTVYLQMNSLKTEDTAVYYCTRDRGILEWLIIEAGWFDVWGPGVLVTVSS
VL: QSVLTQPPSASGAPGQRVTISCTGSSSNIGAGHYVSWYQQLPGTAPKLLIHENDKRPSGVSDRFSGSRSGASASLTITGLQSGDEADYYCSVWDRSLNTLFGGGTRVTVL

Experiments:
[1] = target: SARS-CoV-2 Beta variant RBD (SARS-CoV-2, Beta (B.1.351), strain); assay: BLI
[2] = target: SARS-CoV-2 Delta variant RBD (SARS-CoV-2, Delta (B.1.617.2), strain); assay: BLI
[3] = target: T1, SARS-CoV-2 Omicron BA.1 RBD (SARS-CoV-2, Omicron BA.1, strain); assay: BLI
[4] = target: T2, SARS-CoV-2 receptor binding domain (RBD), wild type (SARS-CoV-2, wild type (Wuhan), UniProt P0DTC2); assay: BLI
[5] = target: T1, SARS-CoV-2 Omicron BA.1 RBD; assay: cell-based or functional assay
[6] = target: T2, SARS-CoV-2 receptor binding domain …; assay: cell-based or functional assay

Binder | Kd [1] | Kd [2] | Kd [3] | Kd [4] | IC50 of neutralization of authentic SARS-CoV-2 BA.1 [5] | fold reduction of binding against 20A7 [4] | IC50 of neutralization of authentic SARS-CoV-2 D614G [6]
B1 | < 0.666 pM | < 0.666 pM | < 0.666 pM | < 0.666 pM | 11 ng/mL | – | –
B2 | < 0.666 pM | < 0.666 pM | < 0.666 pM | < 0.666 pM | 6 ng/mL | – | –
B3 | – | – | – | – | – | ~300 fold | –
B4 | < 0.666 pM | < 0.666 pM | < 0.666 pM | < 0.666 pM | 42 ng/mL | – | 6 ng/mL
